Test results: US20130236458A1 (AbbVie / Abbott, published 2013)
Changes are numbered by the printed parent chain. One block for each binder: values may come before it.

What was measured:
Recombinant Human IL-13 [1] = target: T1, Recombinant Human IL-13 (human, UniProt P35225 35-146, limits assumed); assay: SPR (Biacore)
T1 construct: bought reagent
Experimental: (§1) The BIACORE assay (Biacore, Inc, Piscataway, N.J.) determined the affinity of antibodies or DVD-Ig with kinetic measurements of on-rate and off-rate constants. Binding of antibodies or DVD-Ig proteins to a target antigen (for example, a purified recombinant target antigen) was determined by surface plasmon resonance-based measurements with a Biacore®1000 or 3000 instrument (Biacore® AB, Uppsala, Sweden) using running HBS-EP (10 mM HEPES [pH 7.4], 150 mM NaCl, 3 mM EDTA, and 0.005% surfactant P20) at 25° C. All chemicals were obtained from Biacore® AB (Uppsala, Sweden) or otherwise from a different source as described in the text. For example, approximately 5000 RU of goat anti-mouse IgG, (Fcγ), fragment specific polyclonal antibody (Pierce Biotechnology Inc, Rockford, Ill.) diluted in 10 mM sodium acetate (pH 4.5) was directly immobilized across a CM5 research grade biosensor chip using a standard amine coupling kit according to manufacturer's instructions and procedures at 25 μg/ml. Unreacted moieties on the biosensor surface were blocked with ethanolamine. Modified carboxymethyl dextran surface in flowcell 2 and 4 was used as a reaction surface. Unmodified carboxymethyl dextran without goat anti-mouse IgG in flow cell 1 and 3 was used as the reference surface. For kinetic analysis, rate equations derived from the 1:1 Langmuir binding model were fitted simultaneously to association and dissociation phases of all eight injections (using global fit analysis) with the use of Biaevaluation 4.0.1 software. Purified antibodies or DVD-Ig proteins were diluted in HEPES-buffered saline for capture across goat anti-mouse IgG specific reaction surfaces. Antibodies or DVD-Ig proteins to be captured as a ligand (25 μg/ml) were injected over reaction matrices at a flow rate of 5 μl/minute. The association and dissociation rate constants, kₒₙ (M⁻¹s⁻¹) and koff (s⁻¹) were determined under a continuous flow rate of 25 μl/minute. Rate constants were derived by making kinetic binding measurements at different antigen concentrations ranging from 10-200 nM. The equilibrium dissociation constant (M) of the reaction between antibodies or DVD-Ig proteins and the target antigen was then calculated from the kinetic rate constants by the following formula: KD=koff/kₒₙ. Binding was recorded as a function of time and kinetic rate constants were calculated.

Recombinant Human IL-17 [2] = target: T2, Recombinant Human IL-17 (human, UniProt Q16552 20-155, limits assumed); assay: SPR (Biacore)
T2 construct: bought reagent; also called IL-17A
T2 sequence (looked up): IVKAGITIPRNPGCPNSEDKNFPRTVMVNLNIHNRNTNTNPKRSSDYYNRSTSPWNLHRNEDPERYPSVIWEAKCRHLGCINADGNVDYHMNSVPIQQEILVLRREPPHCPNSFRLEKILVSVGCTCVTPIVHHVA
Experimental: as §1

Recombinant Human IL-17 [3] = target: T2, Recombinant Human IL-17; assay: cell-based or functional assay
Recombinant Human IL-13 [4] = target: T1, Recombinant Human IL-13; assay: cell-based or functional assay

T1 sequence (P35225 35-146 limits assumed): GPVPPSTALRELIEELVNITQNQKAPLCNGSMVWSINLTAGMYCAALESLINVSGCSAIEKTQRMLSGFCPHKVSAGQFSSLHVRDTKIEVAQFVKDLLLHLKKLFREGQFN

- Kd (Recombinant Human IL-13 [1]): 0.16 nM
- koff (Recombinant Human IL-13 [1]): 3.8e-05 s⁻¹
- kon (Recombinant Human IL-13 [1]): 230000 M⁻¹ s⁻¹
- Kd (Recombinant Human IL-17 [2]): 0.0026 nM
- koff (Recombinant Human IL-17 [2]): 6.9e-06 s⁻¹
- kon (Recombinant Human IL-17 [2]): 2.7e+06 M⁻¹ s⁻¹
- N-Terminal VD IL17 Neutralization Assay IC50 (Recombinant Human IL-17 [3]): 7.8 pM
- C-Terminal VD IL13 Neutralization Assay IC50 (Recombinant Human IL-13 [4]): 1.18 nM
B1: DVD2155 (bispecific antibody)
VH: EVQLVQSGAEVKKPGSSVKVSCKASGGSFGGYGIGWVRQAPGQGLEWMGGITPFFGFADYAQKFQGRVTITADESTTTAYMELSGLTSDDTAVYYCARDPNEFWNGYYSTHDFDSWGQGTTVTVSSASTKGPEVTLRESGPGLVKPTQTLTLTCTLYGFSLSTSDMGVDWIRQPPGKGLEWLAHIWWDDVKRYNPALKSRLTISKDTSKNQVVLKLTSVDPVDTATYYCARTVSSGYIYYAMDYWGQGTLVTVSS
VL: EIVLTQSPDFQSVTPKEKVTITCRASQDIGSELHWYQQKPDQPPKLLIKYASHSTSGVPSRFSGSGSGTDFTLTINGLEAEDAGTYYCHQTDSLPYTFGPGTKVDIKRTVAAPDIQMTQSPSSLSASVGDRVTISCRASQDIRNYLNWYQQKPGKAPKLLIFYTSKLHSGVPSRFSGSGSGTDYTLTISSLQPEDIATYYCQQGLTPPLTFGGGTKVEIKR
notes: DVD-Ig; also called DVD2155H; DVD2155L

- Kd (Recombinant Human IL-13 [1]): 0.38 nM
- koff (Recombinant Human IL-13 [1]): 4.1e-05 s⁻¹
- kon (Recombinant Human IL-13 [1]): 110000 M⁻¹ s⁻¹
- Kd (Recombinant Human IL-17 [2]): 0.027 nM
- koff (Recombinant Human IL-17 [2]): 4.5e-05 s⁻¹
- kon (Recombinant Human IL-17 [2]): 1.6e+06 M⁻¹ s⁻¹
- N-Terminal VD IL17 Neutralization Assay IC50 (Recombinant Human IL-17 [3]): 14.4 pM
- C-Terminal VD IL13 Neutralization Assay IC50 (Recombinant Human IL-13 [4]): 0.812 nM
B2: DVD2161 (bispecific antibody)
VH: EVQLVQSGAEVKKPGESVKISCKASGGSFRSYGISWVRQAPGQGLEWMGGITHFFGITDYAQKFQGRVTITADESTTTAYMELSGLTSDDTAVYYCAREPNDFWNGYYDTHDFDSWGQGTTVTVSSASTKGPEVTLRESGPGLVKPTQTLTLTCTLYGFSLSTSDMGVDWIRQPPGKGLEWLAHIWWDDVKRYNPALKSRLTISKDTSKNQVVLKLTSVDPVDTATYYCARTVSSGYIYYAMDYWGQGTLVTVSS
VL: B1 VL with D28N, P43S, T55I, G84A, T91S, S93T, Y96H, P100Q
notes: DVD-Ig; also called DVD2161H; DVD2161L

- Kd (Recombinant Human IL-13 [1]): 0.21 nM
- koff (Recombinant Human IL-13 [1]): 6.9e-05 s⁻¹
- kon (Recombinant Human IL-13 [1]): 330000 M⁻¹ s⁻¹
- Kd (Recombinant Human IL-17 [2]): 0.018 nM
- koff (Recombinant Human IL-17 [2]): 2.6e-05 s⁻¹
- kon (Recombinant Human IL-17 [2]): 1.5e+06 M⁻¹ s⁻¹
- N-Terminal VD IL17 Neutralization Assay IC50 (Recombinant Human IL-17 [3]): 6.6 pM
- C-Terminal VD IL13 Neutralization Assay IC50 (Recombinant Human IL-13 [4]): 0.244 nM
B3: DVD2157 (bispecific antibody)
VH: B1 VH
VL: EIVLTQSPDFQSVTPKEKVTITCRASQDIGSELHWYQQKPDQPPKLLIKYASHSTSGVPSRFSGSGSGTDFTLTINGLEAEDAGTYYCHQTDSLPYTFGPGTKVDIKRTVAAPSVFIFPPDIQMTQSPSSLSASVGDRVTISCRASQDIRNYLNWYQQKPGKAPKLLIFYTSKLHSGVPSRFSGSGSGTDYTLTISSLQPEDIATYYCQQGLTPPLTFGGGTKVEIKR
notes: DVD-Ig; also called DVD2157H; DVD2157L

- Kd (Recombinant Human IL-13 [1]): 0.2 nM
- koff (Recombinant Human IL-13 [1]): 5.3e-05 s⁻¹
- kon (Recombinant Human IL-13 [1]): 260000 M⁻¹ s⁻¹
- Kd (Recombinant Human IL-17 [2]): 0.0049 nM
- koff (Recombinant Human IL-17 [2]): 1.2e-05 s⁻¹
- kon (Recombinant Human IL-17 [2]): 2.5e+06 M⁻¹ s⁻¹
- N-Terminal VD IL17 Neutralization Assay IC50 (Recombinant Human IL-17 [3]): 8.1 pM
- C-Terminal VD IL13 Neutralization Assay IC50 (Recombinant Human IL-13 [4]): 0.876 nM
B4: DVD2159 (bispecific antibody)
VH: EVQLVQSGAEVKKPGSSVKVSCKASGGSFGGYGIGWVRQAPGQGLEWMGGITPFFGFADYAQKFQGRVTITADESTTTAYMELSGLTSDDTAVYYCARDPNEFWNGYYSTHDFDSWGQGTTVTVSSASTKGPSVFPLAPEVTLRESGPGLVKPTQTLTLTCTLYGFSLSTSDMGVDWIRQPPGKGLEWLAHIWWDDVKRYNPALKSRLTISKDTSKNQVVLKLTSVDPVDTATYYCARTVSSGYIYYAMDYWGQGTLVTVSS
VL: B1 VL
notes: DVD-Ig; also called DVD2159H; DVD2159L
